Source: article PMC7153837

Target: B10v5xhu225L, c-METxEGFR bispecific SEED antibody reconstituted by Npu DnaE protein trans-splicing
Assay: BLI

EGFR (EGF receptor), recombinant antigen (from UniProt P00533 25-1210)
Kd: 220 nM
